According to patent publication US7101851 (dated 2006):
Bridges are numbered along the chain shown (N, C = ends). Where no end group is shown, it is not given here. [ ]: non-standard residue; d: D form. Pip = O=C(O)[C@@H]1CCCCN1; dPip = O=C(O)[C@H]1CCCCN1; hCys = N[C@@H](CCS)C(=O)O

T1: alpha subunit of the human FcεRI receptor (IgE high affinity receptor), expressed on Chinese hamster ovary … (human, UniProt P12319 26-257)
T1 construct: whole, on cells; also called CHO FcεRI+ cells; FcεRIα
T1 sequence (looked up): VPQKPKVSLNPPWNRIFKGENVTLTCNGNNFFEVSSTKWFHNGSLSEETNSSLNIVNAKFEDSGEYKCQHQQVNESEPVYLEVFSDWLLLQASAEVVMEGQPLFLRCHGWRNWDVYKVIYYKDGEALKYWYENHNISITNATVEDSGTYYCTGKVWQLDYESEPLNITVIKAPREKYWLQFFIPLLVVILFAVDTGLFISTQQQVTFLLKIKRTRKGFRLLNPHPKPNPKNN

B1: IGE168 (peptide)
peptide: Ac-VQCPHFCYFGAELCPDVCYV-NH2
modifications: disulfide 7-14, 3-18
SMILES: CC(=O)N[C@H](C(=O)N[C@@H](CCC(N)=O)C(=O)N[C@H]1CSSC[C@@H](C(=O)N[C@@H](Cc2ccc(O)cc2)C(=O)N[C@H](C(N)=O)C(C)C)NC(=O)[C@H](C(C)C)NC(=O)[C@H](CC(=O)O)NC(=O)[C@@H]2CCCN2C(=O)[C@@H]2CSSC[C@H](NC(=O)[C@H](Cc3ccccc3)NC(=O)[C@H](Cc3c[nH]cn3)NC(=O)[C@@H]3CCCN3C1=O)C(=O)N[C@@H](Cc1ccc(O)cc1)C(=O)N[C@@H](Cc1ccccc1)C(=O)NCC(=O)N[C@@H](C)C(=O)N[C@@H](CCC(=O)O)C(=O)N[C@@H](CC(C)C)C(=O)N2)C(C)C
B2: IGE167 (peptide)
peptide: VQCPHFCYFGAELCPDVCYV-NH2
modifications: disulfide 7-14, 3-18; N-terminus assumed
SMILES: CC(C)C[C@@H]1NC(=O)[C@H](CCC(=O)O)NC(=O)[C@H](C)NC(=O)CNC(=O)[C@H](Cc2ccccc2)NC(=O)[C@H](Cc2ccc(O)cc2)NC(=O)[C@@H]2CSSC[C@H](NC1=O)C(=O)N1CCC[C@H]1C(=O)N[C@@H](CC(=O)O)C(=O)N[C@@H](C(C)C)C(=O)N[C@H](C(=O)N[C@@H](Cc1ccc(O)cc1)C(=O)N[C@H](C(N)=O)C(C)C)CSSC[C@H](NC(=O)[C@H](CCC(N)=O)NC(=O)[C@@H](N)C(C)C)C(=O)N1CCC[C@H]1C(=O)N[C@@H](Cc1c[nH]cn1)C(=O)N[C@@H](Cc1ccccc1)C(=O)N2

Molecular target: T1, alpha subunit of the human FcεRI …
Assay: inhibition of 125I-IgE binding to CHO cells expressing human FcεRI alpha; competitor IgE
Method: To determine the ability of peptides to inhibit IgE binding to FcεRI, a cell-based binding assay was used with radiolabeled IgE. Chinese hamster ovary cells expressing the alpha subunit of the human FcεRI receptor were cultured overnight in Falcon 96 well microtiter plates at a concentration of 5 ×10^4 cells per well. The following day the cells were rinsed three times with PBS and then once with F12/DMEM. Peptide stocks were reconstituted in 100 mM Hepes buffered water, pH 7.2, at a concentration of 5 mg/mL. Working concentrations of the peptide were diluted in assay buffer (see below). 75 uL of a desired concentration of peptide was added to the top row of a separate 96 well microtiter plate and serially diluted 1:3 in 50 uL of the assay buffer (F12/DMEM, 1% BSA, 0.05% NaN_3 and 0.025 mM Hepes pH 7.2). Starting concentrations ranged from 50–500 uM. Next, 50 uL of the diluted peptide was transferred to the 96 microtiter well plate containing a monolayer of CHO FcεRI+ cells. […] Cells were […]

First: VQCPHFCYELFSRLCPDVCYV-NH2 (disulfide (positions not given here); also: two disulfides, pairing not settled) [IGE182]
Second: B1
The IC50 of the first is 3.2-fold lower: 80 nM for the first, 260 nM for the second.

Going from VQCPHF[hCys]YFGGAELCPDVCYV-NH2 (disulfide 7-15, 3-19) [IGE166] to Ac-VQCPHFCYELDYELCPDVCYV-NH2 (not fully specified (bridges); cysteine pairing not given here) [IGE179], the IC50 falls from 65000 nM to 220 nM (300-fold).

First: VQCPHFCYFGGAELC[dPip]DVCYV-NH2 (disulfide 7-15, 3-19) [IGE161-1]
Second: VQCPHFCYFGGAELC[Pip]DVCYV-NH2 (disulfide 7-15, 3-19) [IGE161-2]
The IC50 of the first is 60-fold higher: 41000 nM for the first, 680 nM for the second. The second is the more potent here.

Going from VQCPHFCYFGGAEL[hCys]PDVCYV-NH2 (disulfide (positions not given here)) [IGE164] to VQC[Pip]HFCYFGGAELCPDVCYV-NH2 (disulfide 7-15, 3-19) [IGE162-2], the IC50 falls from 40700 nM to 430 nM (95-fold). The second is the more potent here.

First: CPHFCYFGAELCPDVCY-NH2 (not fully specified (bridges); cysteine pairing not given here) [IGE170]
Second: VQC[dPip]HFCYFGGAELCPDVCYV-NH2 (disulfide 7-15, 3-19) [IGE162-1]
The IC50 of the first is 20-fold lower: 200 nM for the first, 4090 nM for the second.

Compared with Ac-CPHFCYFGAELCPDVCY-NH2 (not fully specified (bridges); cysteine pairing not given here) [IGE171], VQCPHFCYFGGAELCPDV[hCys]YV-NH2 (disulfide (positions not given here)) [IGE165] is 4-fold higher in IC50: 290 nM for the first, 1170 nM for the second.

With B2 the IC50 was 120 nM.
